{"source": "paper PMC4909201", "about": "(2016)", "target": "thrombin (Homo sapiens, UniProt P00734)", "assay": "SPR", "note": "Non-standard residues stand in square brackets, D forms with d. No end group written: not given here. *: point of attachment. Biotin = O=C1N[C@H]2[C@H](CS[C@H]2CCCCC(=O)*)N1; pY = N[C@@H](Cc1ccc(OP(=O)(O)O)cc1)C(=O)O", "data": [{"binder": "Biotin-DEGDTDL[pY]D[pY][pY]PEEDTEG", "note": "[GpIbα269-286ppp]", "values": [{"measurement": "Kd", "result": 229, "unit": "nM"}]}]}
